Data on five molecules can be found in paper PMC9618773 (iScience, 2022).

The labels stand for the following.
B2: full-length human steroid receptor coactivator-2 (natural protein)
chain: not shown

Series [1] deals with T1, full-length human p300 (human, UniProt Q09472 1-2414). Kind of series: pull-down.
The target in series [2] is T1, full-length human p300. Description: cryo-EM structure.
The series “cryo-EM structure” concerns the molecule itself. Description: cryo-EM structure.
The target of series [3] is B2. Kind of series: cryo-EM structure.
For series [4], the target named is B2. Description: pull-down.

T1 sequence (Q09472 whole entry): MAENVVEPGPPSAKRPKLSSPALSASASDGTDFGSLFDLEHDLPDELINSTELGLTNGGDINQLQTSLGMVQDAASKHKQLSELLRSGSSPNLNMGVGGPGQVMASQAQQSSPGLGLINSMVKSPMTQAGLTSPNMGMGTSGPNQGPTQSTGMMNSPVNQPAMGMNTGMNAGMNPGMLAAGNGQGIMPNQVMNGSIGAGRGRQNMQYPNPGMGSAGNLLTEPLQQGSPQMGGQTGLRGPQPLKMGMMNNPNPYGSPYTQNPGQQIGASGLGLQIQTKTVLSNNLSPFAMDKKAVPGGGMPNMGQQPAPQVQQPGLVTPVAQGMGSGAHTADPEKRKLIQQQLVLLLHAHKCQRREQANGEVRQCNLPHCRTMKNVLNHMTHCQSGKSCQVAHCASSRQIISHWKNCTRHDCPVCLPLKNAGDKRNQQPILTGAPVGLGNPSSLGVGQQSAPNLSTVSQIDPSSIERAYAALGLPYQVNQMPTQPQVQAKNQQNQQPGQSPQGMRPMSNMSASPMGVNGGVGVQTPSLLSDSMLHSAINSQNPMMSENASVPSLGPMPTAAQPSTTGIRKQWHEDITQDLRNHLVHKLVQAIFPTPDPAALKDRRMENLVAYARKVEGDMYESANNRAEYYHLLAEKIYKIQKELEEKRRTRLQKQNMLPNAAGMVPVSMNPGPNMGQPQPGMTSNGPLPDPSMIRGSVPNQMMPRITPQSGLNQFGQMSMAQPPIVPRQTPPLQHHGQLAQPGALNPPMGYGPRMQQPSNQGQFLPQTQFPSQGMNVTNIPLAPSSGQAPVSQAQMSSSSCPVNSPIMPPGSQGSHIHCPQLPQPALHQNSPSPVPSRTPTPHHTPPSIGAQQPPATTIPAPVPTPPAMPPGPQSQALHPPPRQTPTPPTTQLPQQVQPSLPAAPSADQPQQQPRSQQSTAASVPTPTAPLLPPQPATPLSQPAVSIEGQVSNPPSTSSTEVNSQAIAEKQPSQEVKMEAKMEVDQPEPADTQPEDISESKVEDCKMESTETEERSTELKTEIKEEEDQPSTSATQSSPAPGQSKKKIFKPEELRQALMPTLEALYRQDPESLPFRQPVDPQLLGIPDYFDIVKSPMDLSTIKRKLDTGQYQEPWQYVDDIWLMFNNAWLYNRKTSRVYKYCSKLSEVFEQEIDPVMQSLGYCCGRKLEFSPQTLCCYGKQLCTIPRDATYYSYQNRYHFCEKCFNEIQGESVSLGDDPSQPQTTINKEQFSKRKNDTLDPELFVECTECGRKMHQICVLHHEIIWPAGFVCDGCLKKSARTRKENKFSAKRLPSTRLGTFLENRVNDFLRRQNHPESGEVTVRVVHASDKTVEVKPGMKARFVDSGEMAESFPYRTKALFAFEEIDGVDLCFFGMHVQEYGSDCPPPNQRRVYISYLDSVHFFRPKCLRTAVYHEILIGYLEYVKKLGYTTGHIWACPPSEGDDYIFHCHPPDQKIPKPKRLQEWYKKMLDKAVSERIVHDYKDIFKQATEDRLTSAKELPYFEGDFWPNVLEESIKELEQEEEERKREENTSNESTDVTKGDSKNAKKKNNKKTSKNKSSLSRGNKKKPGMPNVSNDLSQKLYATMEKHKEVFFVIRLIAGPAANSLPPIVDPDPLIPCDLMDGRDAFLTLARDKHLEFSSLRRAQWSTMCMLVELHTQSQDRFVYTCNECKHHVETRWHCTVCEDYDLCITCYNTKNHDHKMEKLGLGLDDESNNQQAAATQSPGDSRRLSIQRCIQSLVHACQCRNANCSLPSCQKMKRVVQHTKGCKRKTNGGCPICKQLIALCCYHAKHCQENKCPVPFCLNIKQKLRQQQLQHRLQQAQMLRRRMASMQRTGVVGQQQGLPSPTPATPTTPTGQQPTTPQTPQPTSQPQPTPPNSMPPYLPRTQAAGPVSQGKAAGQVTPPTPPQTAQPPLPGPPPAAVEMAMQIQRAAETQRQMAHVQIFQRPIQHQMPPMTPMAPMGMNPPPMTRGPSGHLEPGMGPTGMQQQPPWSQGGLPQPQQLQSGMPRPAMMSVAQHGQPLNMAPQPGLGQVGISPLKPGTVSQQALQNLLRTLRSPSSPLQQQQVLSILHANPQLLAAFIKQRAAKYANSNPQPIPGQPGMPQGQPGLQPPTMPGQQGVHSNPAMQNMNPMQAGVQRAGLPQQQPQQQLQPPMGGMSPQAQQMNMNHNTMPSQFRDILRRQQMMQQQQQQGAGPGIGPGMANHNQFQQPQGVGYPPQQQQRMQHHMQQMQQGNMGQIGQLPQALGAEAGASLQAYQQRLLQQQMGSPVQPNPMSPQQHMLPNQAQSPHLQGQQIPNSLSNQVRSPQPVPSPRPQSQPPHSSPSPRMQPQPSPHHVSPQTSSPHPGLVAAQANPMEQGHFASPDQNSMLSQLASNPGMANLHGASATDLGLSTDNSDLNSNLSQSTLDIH

B1: GST-fused PR-B fragment AF3 (1-170 aa) (domain or fragment, human, UniProt P06401 1-170, looked up)
chain: MTELKAKGPRAPHVAGGPPSPEVGSPLLCRPAAGPFPGSQTSDTLPEVSAIPISLDGLLFPRPCQGQDPSDEKTQDQQSLSDVEGAYSRAEATRGAGGSSSSPPEKDSGLLDSVLDTLLAPSGPGQSQPSPPACEVTSSWCLFGPELPEDPPAAPATQRVLSPLMSRSGC
On to B1, for which the binding result in the series with full-length human p300 [1] is “binds”. As to B2, in the series with full-length human p300 [2], the binding result is reported as “binds”.

B3: full-length human progesterone receptor-B (receptor, UniProt P06401 1-933, looked up)
chain: MTELKAKGPRAPHVAGGPPSPEVGSPLLCRPAAGPFPGSQTSDTLPEVSAIPISLDGLLFPRPCQGQDPSDEKTQDQQSLSDVEGAYSRAEATRGAGGSSSSPPEKDSGLLDSVLDTLLAPSGPGQSQPSPPACEVTSSWCLFGPELPEDPPAAPATQRVLSPLMSRSGCKVGDSSGTAAAHKVLPRGLSPARQLLLPASESPHWSGAPVKPSPQAAAVEVEEEDGSESEESAGPLLKGKPRALGGAAAGGGAAAVPPGAAAGGVALVPKEDSRFSAPRVALVEQDAPMAPGRSPLATTVMDFIHVPILPLNHALLAARTRQLLEDESYDGGAGAASAFAPPRSSPCASSTPVAVGDFPDCAYPPDAEPKDDAYPLYSDFQPPALKIKEEEEGAEASARSPRSYLVAGANPAAFPDFPLGPPPPLPPRATPSRPGEAAVTAAPASASVSSASSSGSTLECILYKAEGAPPQQGPFAPPPCKAPGASGCLLPRDGLPSTSASAAAAGAAPALYPALGLNGLPQLGYQAAVLKEGLPQVYPPYLNYLRPDSEASQSPQYSFESLPQKICLICGDEASGCHYGVLTCGSCKVFFKRAMEGQHNYLCAGRNDCIVDKIRRKNCPACRLRKCCQAGMVLGGRKFKKFNKVRVVRALDAVALPQPVGVPNESQALSQRFTFSPGQDIQLIPPLINLLMSIEPDVIYAGHDNTKPDTSSSLLTSLNQLGERQLLSVVKWSKSLPGFRNLHIDDQITLIQYSWMSLMVFGLGWRSYKHVSGQMLYFAPDLILNEQRMKESSFYSLCLTMWQIPQEFVKLQVSQEEFLCMKVLLLLNTIPLEGLRSQTQFEEMRSSYIRELIKAIGLRQKGVVSSSQRFYQLTKLLDNLHDLVKQLHLYCLNTFIQSRALSVEFPEMMSEVIAAQLPKILAGMVKPLLFHKK
Usually stoichiometry N stands for the number of molecules, sites or subunits per partner or assembly. B3: the “stoichiometry N” value in the series “cryo-EM structure” came to 2. The binding result (in series [3]; with full-length human p300 [2]) was “binds” in each case.

B4: GST-fused PR-B fragment AF1 (401-546 aa) (domain or fragment, human, UniProt P06401 401-546, looked up)
chain: PRSYLVAGANPAAFPDFPLGPPPPLPPRATPSRPGEAAVTAAPASASVSSASSSGSTLECILYKAEGAPPQQGPFAPPPCKAPGASGCLLPRDGLPSTSASAAAAGAAPALYPALGLNGLPQLGYQAAVLKEGLPQVYPPYLNYLR
Consider B4, for which the binding result (in series [4]; with full-length human p300 [1]) was “binds” each time.

B5: GST-fused PR-B fragment LBD (688-933 aa, which contains the AF2) (domain or fragment, human, UniProt P06401 688-933, looked up)
chain: INLLMSIEPDVIYAGHDNTKPDTSSSLLTSLNQLGERQLLSVVKWSKSLPGFRNLHIDDQITLIQYSWMSLMVFGLGWRSYKHVSGQMLYFAPDLILNEQRMKESSFYSLCLTMWQIPQEFVKLQVSQEEFLCMKVLLLLNTIPLEGLRSQTQFEEMRSSYIRELIKAIGLRQKGVVSSSQRFYQLTKLLDNLHDLVKQLHLYCLNTFIQSRALSVEFPEMMSEVIAAQLPKILAGMVKPLLFHKK
On to B5, for which the binding result with full-length human p300 [1] is recorded as “binds”.
